Experimental data: patent US20250152742A1, “COMPOSITIONS AND METHODS FOR NEUROLOGICAL DISEASES” (Trames Bio, Inc., priority 2022, published 2025)

Test system: engineered chimeric receptor SEQ ID NO: 33 and its mutants (human α7-nAChR ligand binding domain / human GlyRα1 ion pore domain) in Lenti-X 293T cells
Assay: YFP fluorescence quenching anion reporter plate reader assay (percent quench, EC50)
Format: cell-based
Settings: for YFP fluorescence quenching using CNL001 (percent quench): receptor named in row; for YFP fluorescence quenching using Varenicline, 3 nM var: ligand Varenicline 3 nM; for YFP fluorescence quenching using Varenicline, 30 nM var: ligand Varenicline 30 nM; for YFP fluorescence quenching using Varenicline, 300 nM var: ligand Varenicline 300 nM; for YFP fluorescence quenching using Varenicline, 500 nM var: ligand Varenicline 500 nM; for YFP fluorescence quenching using Varenicline, 1 uM var: ligand Varenicline 1 uM
How it was run: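 Lenti-X 293T cells co-expressing an anion-quenchable YFP were transiently transfected with receptor DNA, then ligand was added in NaI-substituted buffer (pH 7.2) after 30 min at 37 °C. Fluorescence was read about 2 min; percent quench = mean of last 10 s over 15 s pre-ligand baseline.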

[1] = 1 nM CNL001, first column so headed
[2] = 1 nM CNL001, second column so headed
[3] = 1 nM brd (TC-5619/Bradanicline)
[4] = 3 nM brd (TC-5619/Bradanicline)
[5] = 10 nM CNL001, first column so headed
[6] = 10 nM CNL001, second column so headed
[7] = 10 nM brd (TC-5619/Bradanicline)
[8] = 30 nM brd (TC-5619/Bradanicline)
[9] = 50 nM CNL001, first column so headed
[10] = 50 nM CNL001, second column so headed
[11] = 100 nM CNL001, first column so headed
[12] = 100 nM CNL001, second column so headed
[13] = 100 nM brd (TC-5619/Bradanicline)
[14] = 300 nM brd (TC-5619/Bradanicline)
[15] = 1 uM CNL001, first column so headed
[16] = 1 uM CNL001, second column so headed

B1: CODA1053: engineered receptor: R101M, L131A in SEQ ID NO: 33 (protein)
chain: MRCSPGGVWLALAASLLHVSLQGEFQRKLYKELVKNYNPLERPVANDSQPLTVYFSLSLLQIMDVDEKNQVLTTNIWLQMSWTDHYLQWNVSEYPGVKTVMFPDGQIWKPDILLYNSADERFDATFHTNVAVNSSGHCQYLPPGIFKSSCPMDLKNFPMDVQTCKLKFGSWSYGGWSLDLQMQEADISGYIPNGEWDLVGIPGKRSERFYECCKEPYPDVTFTVTMRRRMGYYLIQMYIPSLLIVILSWISFWINMDAAPARVGLGITTVLTMTTQSSGSRASLPKVSYVKAIDIWMAVCLLFVFSALLEYAAVNFVSRQHKELLRFRRKRRHHKSPMLNLFQEDEAGEGRFNFSAYGMGPACLQAKDGISVKGANNSNTTNPPPAPSKSPEEMRKLFIQRAKKIDKISRIGFPMAFLIFNMFYWIIYKIVRREDVHNQ
modifications: synthetic sequence of chimeric LGIC
[1]
  YFP fluorescence quenching using CNL001 (percent quench): −8.554%
[2]
  YFP fluorescence quenching using CNL001 (percent quench): −13.711%
[3]
  YFP fluorescence quenching using TC-5619/Bradanicline (percent quench): 0.008%
[4]
  YFP fluorescence quenching using TC-5619/Bradanicline (percent quench): 43.21%
[5]
  YFP fluorescence quenching using CNL001 (percent quench): 39.631%
[6]
  YFP fluorescence quenching using CNL001 (percent quench): 66.809%
[7]
  YFP fluorescence quenching using TC-5619/Bradanicline (percent quench): 77.672%
[8]
  YFP fluorescence quenching using TC-5619/Bradanicline (percent quench): 76.277%
[9]
  YFP fluorescence quenching using CNL001 (percent quench): 82.122%
[10]
  YFP fluorescence quenching using CNL001 (percent quench): 82.031%
50 nM abt (ABT-126)
  YFP fluorescence quenching using ABT-126 (percent quench): −27.01%
[11]
  YFP fluorescence quenching using CNL001 (percent quench): 83.312%
[12]
  YFP fluorescence quenching using CNL001 (percent quench): 83.986%
100 nM abt (ABT-126)
  YFP fluorescence quenching using ABT-126 (percent quench): −18.76%
[13]
  YFP fluorescence quenching using TC-5619/Bradanicline (percent quench): 76.856%
300 nM abt (ABT-126)
  YFP fluorescence quenching using ABT-126 (percent quench): −17.8%
[14]
  YFP fluorescence quenching using TC-5619/Bradanicline (percent quench): 75.32%
[15]
  YFP fluorescence quenching using CNL001 (percent quench): 84.363%
[16]
  YFP fluorescence quenching using CNL001 (percent quench): 83.877%
1 uM abt (ABT-126)
  YFP fluorescence quenching using ABT-126 (percent quench): −6.55%
10 uM ach (acetylcholine)
  YFP fluorescence quenching (percent quench): −3.98%
100 uM ach (acetylcholine)
  YFP fluorescence quenching (percent quench): −11%
300 uM ach (acetylcholine)
  YFP fluorescence quenching (percent quench): −7.92%
500 uM ach (acetylcholine)
  YFP fluorescence quenching (percent quench): 7.36%
1 mM ach (acetylcholine)
  YFP fluorescence quenching (percent quench): 57.28%
3 mM ach (acetylcholine)
  YFP fluorescence quenching (percent quench): 60.54%
10 mM ach (acetylcholine)
  YFP fluorescence quenching (percent quench): 79.46%
First column
  YFP fluorescence quenching using Varenicline, 3 nM var: 74.835
  YFP fluorescence quenching using Varenicline, 30 nM var: 77.608
  YFP fluorescence quenching using Varenicline, 300 nM var: 80.71
  YFP fluorescence quenching using Varenicline, 500 nM var: 78.709
  YFP fluorescence quenching using Varenicline, 1 uM var: 79.688
Second column
  YFP fluorescence quenching using Varenicline, 3 nM var: 76.119
  YFP fluorescence quenching using Varenicline, 30 nM var: 79.015
  YFP fluorescence quenching using Varenicline, 300 nM var: 79.002
  YFP fluorescence quenching using Varenicline, 500 nM var: 78.884
  YFP fluorescence quenching using Varenicline, 1 uM var: 80

B2: CODA1055: engineered receptor: R101W, Y115E, Y210W in SEQ ID NO: 33 (protein)
chain: MRCSPGGVWLALAASLLHVSLQGEFQRKLYKELVKNYNPLERPVANDSQPLTVYFSLSLLQIMDVDEKNQVLTTNIWLQMSWTDHYLQWNVSEYPGVKTVWFPDGQIWKPDILLENSADERFDATFHTNVLVNSSGHCQYLPPGIFKSSCPMDLKNFPMDVQTCKLKFGSWSYGGWSLDLQMQEADISGYIPNGEWDLVGIPGKRSERFWECCKEPYPDVTFTVTMRRRMGYYLIQMYIPSLLIVILSWISFWINMDAAPARVGLGITTVLTMTTQSSGSRASLPKVSYVKAIDIWMAVCLLFVFSALLEYAAVNFVSRQHKELLRFRRKRRHHKSPMLNLFQEDEAGEGRFNFSAYGMGPACLQAKDGISVKGANNSNTTNPPPAPSKSPEEMRKLFIQRAKKIDKISRIGFPMAFLIFNMFYWIIYKIVRREDVHNQ
modifications: synthetic sequence of chimeric LGIC
[1]
  YFP fluorescence quenching using CNL001 (percent quench): −12.889%
[2]
  YFP fluorescence quenching using CNL001 (percent quench): −13.295%
[3]
  YFP fluorescence quenching using TC-5619/Bradanicline (percent quench): −8.113%
[4]
  YFP fluorescence quenching using TC-5619/Bradanicline (percent quench): −11.136%
[5]
  YFP fluorescence quenching using CNL001 (percent quench): −10.401%
[6]
  YFP fluorescence quenching using CNL001 (percent quench): −7.981%
[7]
  YFP fluorescence quenching using TC-5619/Bradanicline (percent quench): 38.755%
30 nM TC-6683
  YFP fluorescence quenching using TC-6683 (percent quench): −30.056%
[8]
  YFP fluorescence quenching using TC-5619/Bradanicline (percent quench): 39.111%
[9]
  YFP fluorescence quenching using CNL001 (percent quench): −1.972%
[10]
  YFP fluorescence quenching using CNL001 (percent quench): −1.661%
50 nM abt (ABT-126)
  YFP fluorescence quenching using ABT-126 (percent quench): −21.36%
[11]
  YFP fluorescence quenching using CNL001 (percent quench): 0.277%
[12]
  YFP fluorescence quenching using CNL001 (percent quench): 4.325%
100 nM abt (ABT-126)
  YFP fluorescence quenching using ABT-126 (percent quench): −22.28%
[13]
  YFP fluorescence quenching using TC-5619/Bradanicline (percent quench): 61.378%
300 nM TC-6683
  YFP fluorescence quenching using TC-6683 (percent quench): −30.801%
300 nM abt (ABT-126)
  YFP fluorescence quenching using ABT-126 (percent quench): −14.63%
[14]
  YFP fluorescence quenching using TC-5619/Bradanicline (percent quench): 52.398%
[15]
  YFP fluorescence quenching using CNL001 (percent quench): 2.88%
[16]
  YFP fluorescence quenching using CNL001 (percent quench): 3.259%
1 uM abt (ABT-126)
  YFP fluorescence quenching using ABT-126 (percent quench): −7.34%
3 uM TC-6683
  YFP fluorescence quenching using TC-6683 (percent quench): −25.558%
30 uM TC-6683
  YFP fluorescence quenching using TC-6683 (percent quench): −18.295%
100 uM TC-6683
  YFP fluorescence quenching using TC-6683 (percent quench): −17.554%
100 uM ach (acetylcholine)
  YFP fluorescence quenching (percent quench): −15.63%
300 uM ach (acetylcholine)
  YFP fluorescence quenching (percent quench): −12.05%
500 uM ach (acetylcholine)
  YFP fluorescence quenching (percent quench): −12.87%
1 mM ach (acetylcholine)
  YFP fluorescence quenching (percent quench): −11.55%
3 mM ach (acetylcholine)
  YFP fluorescence quenching (percent quench): 12.68%
10 mM ach (acetylcholine)
  YFP fluorescence quenching (percent quench): 37.58%
First column
  YFP fluorescence quenching using Varenicline, 3 nM var: 0.468
  YFP fluorescence quenching using Varenicline, 30 nM var: −15.532
  YFP fluorescence quenching using Varenicline, 300 nM var: −17.027
  YFP fluorescence quenching using Varenicline, 500 nM var: −13.343
  YFP fluorescence quenching using Varenicline, 1 uM var: −6.604
Second column
  YFP fluorescence quenching using Varenicline, 3 nM var: −10.015
  YFP fluorescence quenching using Varenicline, 30 nM var: −14.462
  YFP fluorescence quenching using Varenicline, 300 nM var: −15.59
  YFP fluorescence quenching using Varenicline, 500 nM var: −10.702
  YFP fluorescence quenching using Varenicline, 1 uM var: −7.612

B3: CODA1056: engineered receptor: R101F, Y115E, Y210W in SEQ ID NO: 33 (protein)
chain: MRCSPGGVWLALAASLLHVSLQGEFQRKLYKELVKNYNPLERPVANDSQPLTVYFSLSLLQIMDVDEKNQVLTTNIWLQMSWTDHYLQWNVSEYPGVKTVFFPDGQIWKPDILLENSADERFDATFHTNVLVNSSGHCQYLPPGIFKSSCPMDLKNFPMDVQTCKLKFGSWSYGGWSLDLQMQEADISGYIPNGEWDLVGIPGKRSERFWECCKEPYPDVTFTVTMRRRMGYYLIQMYIPSLLIVILSWISFWINMDAAPARVGLGITTVLTMTTQSSGSRASLPKVSYVKAIDIWMAVCLLFVFSALLEYAAVNFVSRQHKELLRFRRKRRHHKSPMLNLFQEDEAGEGRFNFSAYGMGPACLQAKDGISVKGANNSNTTNPPPAPSKSPEEMRKLFIQRAKKIDKISRIGFPMAFLIFNMFYWIIYKIVRREDVHNQ
modifications: synthetic sequence of chimeric LGIC
[1]
  YFP fluorescence quenching using CNL001 (percent quench): −8.104%
[2]
  YFP fluorescence quenching using CNL001 (percent quench): −12.153%
[3]
  YFP fluorescence quenching using TC-5619/Bradanicline (percent quench): −7.894%
[4]
  YFP fluorescence quenching using TC-5619/Bradanicline (percent quench): −11.812%
[5]
  YFP fluorescence quenching using CNL001 (percent quench): −10.462%
[6]
  YFP fluorescence quenching using CNL001 (percent quench): −4.735%
[7]
  YFP fluorescence quenching using TC-5619/Bradanicline (percent quench): 36.211%
30 nM TC-6683
  YFP fluorescence quenching using TC-6683 (percent quench): −19.889%
[8]
  YFP fluorescence quenching using TC-5619/Bradanicline (percent quench): 40.624%
[9]
  YFP fluorescence quenching using CNL001 (percent quench): −8.617%
[10]
  YFP fluorescence quenching using CNL001 (percent quench): −1.606%
50 nM abt (ABT-126)
  YFP fluorescence quenching using ABT-126 (percent quench): −20.96%
[11]
  YFP fluorescence quenching using CNL001 (percent quench): −1.243%
[12]
  YFP fluorescence quenching using CNL001 (percent quench): 1.838%
100 nM abt (ABT-126)
  YFP fluorescence quenching using ABT-126 (percent quench): −21.95%
[13]
  YFP fluorescence quenching using TC-5619/Bradanicline (percent quench): 65.869%
300 nM TC-6683
  YFP fluorescence quenching using TC-6683 (percent quench): −22.443%
300 nM abt (ABT-126)
  YFP fluorescence quenching using ABT-126 (percent quench): −10.96%
[14]
  YFP fluorescence quenching using TC-5619/Bradanicline (percent quench): 59.661%
[15]
  YFP fluorescence quenching using CNL001 (percent quench): −0.567%
[16]
  YFP fluorescence quenching using CNL001 (percent quench): 4.663%
1 uM abt (ABT-126)
  YFP fluorescence quenching using ABT-126 (percent quench): 10.79%
3 uM TC-6683
  YFP fluorescence quenching using TC-6683 (percent quench): −12.623%
30 uM TC-6683
  YFP fluorescence quenching using TC-6683 (percent quench): −10.728%
100 uM TC-6683
  YFP fluorescence quenching using TC-6683 (percent quench): −10.959%
100 uM ach (acetylcholine)
  YFP fluorescence quenching (percent quench): −20.55%
300 uM ach (acetylcholine)
  YFP fluorescence quenching (percent quench): −19.32%
500 uM ach (acetylcholine)
  YFP fluorescence quenching (percent quench): −19.75%
1 mM ach (acetylcholine)
  YFP fluorescence quenching (percent quench): −14.08%
3 mM ach (acetylcholine)
  YFP fluorescence quenching (percent quench): 14.07%
10 mM ach (acetylcholine)
  YFP fluorescence quenching (percent quench): 25.7%
